Laboratory results published in IntAct's records for PubMed 26437117.

B1: Synaptotagmin-1 (Rattus norvegicus (Rat)), P21707 (parent)
chain: MVSASHPEALAAPVTTVATLVPHNATEPASPGEGKEDAFSKLKQKFMNELHKIPLPPWALIAIAIVAVLLVVTCCFCVCKKCLFKKKNKKKGKEKGGKNAINMKDVKDLGKTMKDQALKDDDAETGLTDGEEKEEPKEEEKLGKLQYSLDYDFQNNQLLVGIIQAAELPALDMGGTSDPYVKVFLLPDKKKKFETKVHRKTLNPVFNEQFTFKVPYSELGGKTLVMAVYDFDRFSKHDIIGEFKVPMNTVDFGHVTEEWRDLQSAEKEEQEKLGDICFSLRYVPTAGKLTVVILEAKNLKKMDVGGLSDPYVKIHLMQNGKRLKKKKTTIKKNTLNPYYNESFSFEVPFEQIQKVQVVVTVLDYDKIGKNDAIGKVFVGYNSTGAELRHWSDMLANPRRPIAQWHTLQVEEEVDAMLAVKK

Variants of: B1
Details: with stx1a_mouse Stx1a

Variant | effect of a mutation on the interaction
D178A;D230A;D232A;D309A;D363A;D365A | decreasing interaction strength
